Source: PMC4624681 (2015)

T1: Zaire GP (1–320) with a His tag (Ebolavirus, Zaire strain, UniProt Q05320 33-320)
T1 chain: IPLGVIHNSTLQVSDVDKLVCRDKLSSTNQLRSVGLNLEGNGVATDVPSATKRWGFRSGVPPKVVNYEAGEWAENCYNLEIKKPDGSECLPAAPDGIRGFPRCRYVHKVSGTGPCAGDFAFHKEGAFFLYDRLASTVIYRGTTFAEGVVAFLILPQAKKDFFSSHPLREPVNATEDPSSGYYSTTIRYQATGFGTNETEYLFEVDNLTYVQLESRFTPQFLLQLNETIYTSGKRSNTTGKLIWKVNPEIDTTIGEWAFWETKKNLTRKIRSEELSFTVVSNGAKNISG


Target: T1, Zaire GP (1–320) with a His tag
Test: SPR

| Binder | Kd [µM] |
| --- | --- |
| T41 (BC-CC’-FG) chimera: hTIM-4 Ig V with the BC, CC’ and FG loops of hTIM-1 (domain or fragment) VTSETVVTEVLGHRVTLPCLYSGAVTSMCWNRGSCSLFTCKEALIRTDGMRVTSRKSAKYRLQGTIPRGDVSLTILNPSESDSGVYCCRIEHRGWFNDVKINVRLNLQRASTT | 72.4 |
| T14 (FG) chimera: hTIM-1 Ig V with the FG loop of hTIM-4 (domain or fragment) VKVGGEAGPSVTLPCHYSGAVTSMCWNRGSCSLFTCQNGIVWTNGTHVTYRKDTRYKLLGDLSRRDVSLTIENTAVSDSGVYCCRVEVPGWFNDMKITVSLEIVPPKV | 57.9 |
| T41 (CC’-FG) chimera: hTIM-4 Ig V with the CC’ and FG loops of hTIM-1 (domain or fragment) VTSETVVTEVLGHRVTLPCLYSSWSHNSNSMCWNRGSCSLFTCKEALIRTDGMRVTSRKSAKYRLQGTIPRGDVSLTILNPSESDSGVYCCRIEHRGWFNDVKINVRLNLQRASTT | 208 |
| T41 (BC-CC’) chimera: hTIM-4 Ig V with the BC and CC’ loops of hTIM-1 (domain or fragment) VTSETVVTEVLGHRVTLPCLYSGAVTSMCWNRGSCSLFTCKEALIRTDGMRVTSRKSAKYRLQGTIPRGDVSLTILNPSESDSGVYCCRIEVPGWFNDVKINVRLNLQRASTT | 73.2 |
